# Laboratory results published in article PMC3729527, “Redox-sensitive DNA binding by homodimeric Methanosarcina acetivorans MsvR is modulated by cysteine residues”.
# Substitutions are numbered along the chain they refer to.
# B1: Ma PmsvR 1 bp deletion between boxes (dsDNA)
# DNA 1: TATTTCAAACATGATTATTCGTAGCACGCGAACGTTTTATATATTCAAA
# DNA 2: TTTGAATATATAAAACGTTCGCGTGCTACGAATAATCATGTTTGAAATA
# B2: Ma PmsvR 1 bp insertion between boxes (dsDNA)
# DNA 1: TATTTCAAACATGATTATTCGTAGTTCACGCGAACGTTTTATATATTCAAA
# DNA 2: TTTGAATATATAAAACGTTCGCGTGAACTACGAATAATCATGTTTGAAATA
# B3: Ma PmsvR 50 bp box A mutant (dsDNA)
# DNA 1: TATTTCAAACATGATTAGGGGTAGTCACGCGAACGTTTTATATATTCAAA
# DNA 2: TTTGAATATATAAAACGTTCGCGTGACTACCCCTAATCATGTTTGAAATA
# B4: Ma PmsvR 50 bp box B mutant (dsDNA)
# DNA 1: B3 DNA 1 with G18T, G19T, G20C, C30G, A32G, A33G
# DNA 2: B3 DNA 2 with T18C, T19C, G21C, C31G, C32A, C33A
# B5: Ma PmsvR flanks replaced (dsDNA)
# DNA 1: GAGGGAATGAAATCCTCTTCGTAGTCACGCGAAAATGGACAAGTCTGATT
# DNA 2: AATCAGACTTGTCCATTTTCGCGTGACTACGAAGAGGATTTCATTCCCTC
# Assays:
# [1] = biological target: T1, MaMsvR (Methanosarcina acetivorans C2A) (UniProt Q8TQT2); test: EMSA; conditions: EMSA at room temperature, 10 nM DNA and 200 nM MsvR (50 nM DNA and 1 uM protein for 50 bp oligos), with or without 5 mM DTT; binding buffer as in cited ref 9 …
# T1 sequence: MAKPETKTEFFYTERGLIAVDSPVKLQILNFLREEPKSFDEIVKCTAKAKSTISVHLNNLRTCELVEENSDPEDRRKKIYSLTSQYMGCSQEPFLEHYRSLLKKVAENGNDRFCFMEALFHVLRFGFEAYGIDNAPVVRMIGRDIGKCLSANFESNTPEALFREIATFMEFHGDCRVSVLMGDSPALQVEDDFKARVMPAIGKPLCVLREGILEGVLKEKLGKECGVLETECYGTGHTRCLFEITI
# [2] = tested on: T2, MaMsvR C206A C206A (Methanosarcina acetivorans C2A), ORF:da4acb06; test: EMSA; conditions: EMSA at room temperature, 10 nM DNA and 200 nM MsvR (50 nM DNA and 1 uM protein for 50 bp oligos), with or without 5 mM DTT; binding buffer as in cited ref 9 …
# T2 sequence: T1 sequence with C206A
# [3] = tested on: T3, MaMsvR C232A C232A (Methanosarcina acetivorans C2A), ORF:da4acb06; test: EMSA; conditions: EMSA at room temperature, 10 nM DNA and 200 nM MsvR (50 nM DNA and 1 uM protein for 50 bp oligos), with or without 5 mM DTT; binding buffer as in cited ref 9 …
# T3 sequence: T1 sequence with C232A
# [4] = tested on: T4, MaMsvR C240A C240A (Methanosarcina acetivorans C2A), ORF:da4acb06; test: EMSA; conditions: EMSA at room temperature, 10 nM DNA and 200 nM MsvR (50 nM DNA and 1 uM protein for 50 bp oligos), with or without 5 mM DTT; binding buffer as in cited ref 9 …
# T4 sequence: T1 sequence with C240A
# [5] = biological target: Methanosarcina acetivorans MsvR (methanogen specific V4R domain regulator), N-terminal Strep-tag (Methanosarcina acetivorans C2A); test: SEC; Superdex 200 HiLoad 16/600; 20 mM Tris pH 8, 10 mM MgCl2, 200 mM KCl; 0.5 ml/min; non-reduced MaMsvR (0.65 mg loaded) and reduced MaMsvR (0.84 mg, 2 mM beta-ME in the elution buffer); calibrated with ferritin, conalbumin, carbonic anhydrase, ribonuclease A
# [6] = biological target: Methanosarcina acetivorans MsvR (methanogen specific V4R domain regulator), N-terminal Strep-tag (Methanosarcina acetivorans C2A); test: SDS-PAGE without boiling, with immunoblot (Strep-tag antibody); 1 pmol protein in Laemmli sample buffer without or with 5 mM DTT, room temperature five minutes, not boiled; reduced and boiled sample as control; oligomers that withstand SDS, likely stabilised by disulfide bonds
# MaMsvR [7] = biological target: T5, MaMsvR (Methanosarcina acetivorans C2A, UniProt Q8TQT2 1-246); test: EMSA; reducing; EMSA at room temperature, 10 nM DNA and 200 nM MsvR (50 nM DNA and 1 uM protein for 50 bp oligos), with or without 5 mM DTT; binding buffer as in cited ref 9; protein stock in 20 mM Tris pH 8, 10 mM MgCl2, 200 mM KCl, glycerol; conditions: protein: recombinant; tags: N-terminal Strep-tag; chain copies: 2; blunt
# T5 sequence: T1 sequence
# MaMsvR [8] = biological target: T5, MaMsvR; test: EMSA; 5 mM DTT; 1 uM protein, 50 nM DNA; EMSA at room temperature, 10 nM DNA and 200 nM MsvR (50 nM DNA and 1 uM protein for 50 bp oligos), with or without 5 mM DTT; binding buffer as in cited ref 9; protein stock in 20 mM Tris pH 8, 10 mM MgCl2, 200 mM KCl, glycerol; conditions: protein: recombinant; tags: N-terminal Strep-tag; chain copies: 2; blunt
molecule,measurement,setting,value
AGATCCCCCAGCGTCTCCAGAACTTGCGGAGTGAATCCCATTTTTTCTCCCATACTCTCCAGTATCTCTTCATGCTCTGTCATTTTTCCAGTCTCCTTACTCCGATAACTACCAGCTGTTGATATTTATATTGGTTATTTATATTTATTATTAATTAATATTTCTCAAATCTGTGTTCAGGCCTTTTACTTCCTCATTCCTGTCCAAAGGCCCTTTATTAAAGTCCGCATCCTTTGTTATGGGCTGCACA (double strand) [Ma P3736],binding,[1],no binding
AAAGTAAGAAATTCTCTCTATATGTATGGGTTTATGATATCTCAGACCTGAAAATATGCGGATAAAATTCGGATAAAACAGGATTTCCTGATTTGGAGGGAAAGTAATGAAGTGTTACGAATGTGCCAGAGAGGGCAAAGATACGGATGCTGTGGGAATTTGTATCGTATGTGGAAGAGGAGTTTGCAAAGAACACCTTATCCATGAGGAAACACCTGCGTGGGAAGGCGACTATCCTAT (double strand) [Ma P3734],binding,[1],no binding
TTACTTTGCCGTTTCCCCCCATTTTCTTTATATCTTTTTATATCTGTATTATTATATTTCAAACATGATTATTCGTAGTCACGCGAACGTTTTATATATTCAAAACGCAACTTATCTAAAGATATTATGGCAAAACCTGAGACCAAAACTGAATTCTTTTATACCGAAAGAGGGCTCATAGCCGTAGACAGCCCTGTTAAACTCCAGATCCTGAATTTTCTCAGGG (double strand) [Ma PmsvR (PCR)],binding,[1],binds
same,binding,[2],binds
same,binding,[3],binds
same,binding,[4],binds
"Methanosarcina acetivorans MsvR (methanogen specific V4R domain regulator), N-terminal Strep-tag (natural protein)",stoichiometry N,[5],2
same,stoichiometry N,[6],2
GCAGATCTCGCAGCGGTACTTTTCTCCTTTTCTGGATACAGCCATAGCTACTTCACCTCCTTGCTTCTGAATTTAAATACCTCAAAACTTTCAAGCGGGCTTTCCCCTTCCCTGTAATCCCGAAATTACTCCGGGTTTCACCAACACTCATACATGTTAACCATTCTTTGTATATAATTGTAAGGACTTTTTAAAAAGTAACATAAATTTTTTCCTTCTATTCGGGTATGTCTTA (double strand) [Ma P4664],binding,[1],no binding
AGGCTTTACAAAGTAAATAAAGGGGAGAAAAAGGGTTAAAACCTGAATAAGAAGTAAAGAAAACTCCGATATAAGCAAAAGTATTTATAGAATCCGATTACAAAATCAGAGGTTAGAAGGAATTTATATTAACAAAAAGAAGCTTGGAGGATAATATGGCAAAAGTTATACCATTTGCACCAATCGAACGCCTGATAAGGACGGCTGGTGCCCACAGAGTAAGTGAGA (double strand) [Ma PhmaA],binding,[1],no binding
CCGAAAACATTCCTGGCAATCTCCGGGATATTATATATTTCCATACTTTTCCTCCAACTCTCTTCTGAATCATTTACTCTCAAAATAAAATGTACCAAAATACGGTACACAGAAATCTTTAACTGTTCCCCACAAGCTCAAAACAGTATTATGGTGTAGCTATGTTAATTCGATATATTTATTATATTGATTAAATATTTTTGATAAGAACCTCTTTCTATTTTTACCTGTTCGTTCTGTCAGA (double strand) [Ma P3381],binding,[1],no binding
TCAGCTTTTCTTACGTTTGACCGTTATAGGAATAATTTCGGCCTTCAACTCTGCAATGGCTACACCCAGGGGGTCCAGCCGCCCGTCATCATCAACCAGGACAGGAGCCCCCATTGCTATCTGCAATGCTCTTGCACCTACAATTCGTGCACGCTCGAACCGGGTATACTTTT (double strand) [Ma rpoK],binding,[1],no binding
B1,binding result,MaMsvR [7],binds
B2,binding result,MaMsvR [7],binds
B3,binding result,MaMsvR [8],no binding
B4,binding result,MaMsvR [8],no binding
B5,binding result,MaMsvR [7],no binding
